Reference: PMC11324105

Target: Nb9-R59A (alpaca)
Test: BLI

Nb9-R59A (alpaca), sequence (heavy, as listed by the source): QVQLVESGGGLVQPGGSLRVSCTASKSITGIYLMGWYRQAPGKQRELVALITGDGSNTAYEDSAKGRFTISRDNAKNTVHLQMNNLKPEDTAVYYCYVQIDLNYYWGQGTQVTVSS

MERS-CoV RBD (from UniProt K9N5Q8) (domain or fragment)
Kd: 4.58 µM
koff: 0.0624 s⁻¹
kon: 13600 M⁻¹ s⁻¹
